Measurements from PMC3220268, “Phosphorylation of the Arp2 Subunit Relieves Auto-inhibitory Interactions for Arp2/3 Complex Activation” (PLoS Computational Biology, 2011).

What was measured:
[1] = biological target: recombinant Arp2/3 complex with Arp2 T237A, T238A, and Y202A mutations (UniProt P61158 1-418; P61160 1-394; O15143 1-372; O15144 1-300; O15145 1-178; P59998 …, T237A | T238A | Y202A); assay: pull-down; GST-NWASP VCA covalently coupled to Activated CH-sepharose 4B; beads added to Arp2/3 complex, room temperature, 30 min; beads spun at 700 x g, Coomassie-stained gels quantified and fitted; details: both partners purified
[2] = biological target: recombinant Arp2/3 complex with ARPC4 R105A and R106A mutations (UniProt P61158 1-418; P61160 1-394; O15143 1-372; O15144 1-300; O15145 1-178; P59998 …, R105A | R106A); assay: as above; details: both partners purified

B1: GST-NWASP VCA (domain or fragment)
chain: PSDGDHQVPTTAGNKAALLDQIREGAQLKKVEQNSRPVSCSGRDALLDQIRQGIQLKSVADGQESTPPTPAPTSGIVGALMEVMQKRSKAIHSSDEDEDEDDEEDFEDDDEWED
- Kd [1]: 0.5 µM
- Kd [2]: 0.06 µM
